Patent US20230295324A1 (published 2023)
Like-named read-outs stand apart in the source and are kept apart here.

T1: human OX40 on cells (CHO-K1/hu OX40) (human, UniProt P43489 29-277)
T1 construct: whole, on cells; Also used here for OX40 on the HEK293/OX40/NF-kb reporter cells and on human T cells in the functional assays; also called CHO-K1/OX40; human OX40 cells
T1 sequence (looked up): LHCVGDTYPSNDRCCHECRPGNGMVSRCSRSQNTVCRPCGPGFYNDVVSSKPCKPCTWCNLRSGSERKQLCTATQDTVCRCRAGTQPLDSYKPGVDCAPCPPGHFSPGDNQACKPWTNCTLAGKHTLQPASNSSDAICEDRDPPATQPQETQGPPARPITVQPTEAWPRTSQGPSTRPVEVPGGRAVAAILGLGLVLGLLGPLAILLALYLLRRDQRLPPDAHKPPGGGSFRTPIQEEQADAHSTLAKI

T2: human OX40 protein (Acro biosystem, #OX0-H5224) (human, UniProt P43489 29-216)
T2 construct: Bought recombinant protein
T2 sequence (looked up): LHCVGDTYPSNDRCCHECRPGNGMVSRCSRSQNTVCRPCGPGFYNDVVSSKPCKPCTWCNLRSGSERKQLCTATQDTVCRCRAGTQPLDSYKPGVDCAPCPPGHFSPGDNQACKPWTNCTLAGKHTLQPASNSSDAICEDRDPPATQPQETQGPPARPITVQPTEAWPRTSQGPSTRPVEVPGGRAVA


How the values were obtained:
[1] = target: T3, human PSMA on LNCAP cells (human, UniProt Q04609 1-750); assay: FACS, LNCAP cells (human PSMA)
T3 construct: whole, on cells
T3 sequence (Q04609 whole entry): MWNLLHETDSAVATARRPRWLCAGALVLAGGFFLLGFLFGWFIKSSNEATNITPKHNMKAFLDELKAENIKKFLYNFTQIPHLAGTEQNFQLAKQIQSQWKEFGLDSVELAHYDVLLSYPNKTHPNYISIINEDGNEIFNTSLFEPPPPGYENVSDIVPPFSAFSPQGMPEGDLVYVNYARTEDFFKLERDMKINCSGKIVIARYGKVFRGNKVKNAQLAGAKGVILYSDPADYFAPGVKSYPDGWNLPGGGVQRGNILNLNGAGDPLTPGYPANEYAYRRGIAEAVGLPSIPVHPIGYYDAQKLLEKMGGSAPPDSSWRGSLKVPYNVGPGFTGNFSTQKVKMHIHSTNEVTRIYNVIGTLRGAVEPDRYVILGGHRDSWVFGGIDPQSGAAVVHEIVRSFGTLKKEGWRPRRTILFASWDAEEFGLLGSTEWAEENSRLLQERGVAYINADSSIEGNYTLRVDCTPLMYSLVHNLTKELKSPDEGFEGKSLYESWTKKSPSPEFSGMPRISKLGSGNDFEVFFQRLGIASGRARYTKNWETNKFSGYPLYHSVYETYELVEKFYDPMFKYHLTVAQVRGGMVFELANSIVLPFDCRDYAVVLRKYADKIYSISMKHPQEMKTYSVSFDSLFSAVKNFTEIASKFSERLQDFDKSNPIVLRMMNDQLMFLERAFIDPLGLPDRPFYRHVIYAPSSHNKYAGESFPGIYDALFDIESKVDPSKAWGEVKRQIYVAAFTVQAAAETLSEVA
Description: This example is intended to investigate the in vitro binding activity of OX40×TAA bispecific antibodies obtained in Example 9 to tumor-associated antigens (TAAs). […] Briefly, those cells were digested, resuspended in a complete medium, and washed with PBS, and the cell density was adjusted to 1×10⁶ cells/ml with PBS. The cells were seeded in a 96-well V-bottom plate (Corning, #3894) at 100 μL/well, and centrifuged, and then the supernatant was discarded. Then, the test antibodies diluted in a 3-fold gradient were added at 100 μL/well. The cells were incubated at 4° C. for 1 h away from light. Thereafter, the cells in each well were rinsed twice with 100 μL of pre-cooled PBS, and centrifuged at 500 g at 4° C. for 5 min, and then the supernatant was discarded. […] The plate was incubated away from light at 4° C. for 30 min. The cells in each well were rinsed twice with 100 μL of pre-cooled PBS, and centrifuged at 500 g at 4° C. for 5 min, and then the supernatant was discarded. Finally, the cells in each well were resuspended in 200 μL of pre-cooled PBS, and the fluorescence signal values were read using NovoCyte flow cytometer (ACEA Biosciences).

[2] = target: T1, human OX40 on cells (CHO-K1/hu OX40); assay: FACS, CHO-K1/hu OX40 cells
Description: This example is intended to investigate the in vitro binding activity of OX40×TAA bispecific antibodies obtained in Example 9 to human OX40. The antibody binding assay at the cellular level was performed using a CHO-K1 cell strain overexpressing human OX40 (CHO-K1/hu OX40). Briefly, CHO-K1/hu OX40 cells were digested, resuspended in an F12K complete medium, and washed with PBS, and the cell density was adjusted to 1×10⁶ cells/ml with PBS. The cells were seeded in a 96-well V-bottom plate (Corning, #3894) at 100 μL/well, followed by the addition of test antibodies diluted in a 3-fold gradient at concentrations that were 2 times the final concentrations at 100 μL/well. The cells were incubated at 4° C. for 1 h away from light. Thereafter, the cells in each well were rinsed twice with 100 μL of pre-cooled PBS, and centrifuged at 500 g at 4° C. for 5 min, and then the supernatant was discarded. […] The plate was incubated away from light at 4° C. for 30 min. The cells in each well were rinsed twice with 100 μL of pre-cooled PBS, and centrifuged at 500 g at 4° C. for 5 min, and then the supernatant was discarded. Finally, the cells in each well were resuspended in 200 μL of pre-cooled PBS, and the fluorescence signal values were read using NovoCyte flow cytometer (ACEA Biosciences).

[3] = target: T4, cynomolgus monkey OX40 protein (Novoprotein, #CB17) (cynomolgus monkey); assay: ELISA, coated cyno OX40 protein
T4 construct: Bought recombinant protein; also called cyno OX40
Description: (§1) This example is intended to investigate the in vitro binding activity of the anti-OX40 HCAb monoclonal antibodies prepared in Example 1 to human and cynomolgus monkey OX40 proteins. The antibody binding assay at the protein level was performed using a human OX40 protein (Acro biosystem, #OX0-H5224) and a cynomolgus monkey OX40 protein (Novoprotein, #CB17). Briefly, a 384-well plate (PerkinElmer, #6007509) was coated with 1 μg/mL human OX40 protein and a cynomolgus monkey OX40 protein dissolved in PBS at 20 μL/well, and incubated at 4° C. overnight. The next day, the 384-well plate was washed three times with PBS containing 0.05% Tween (MEDICAGO, #09-9410-100), and blocked with PBS containing 2% milk (Bio-Rad, #170-6404) at 37° C. for 1 h. […] The plate was added with a stop buffer (BBI life sciences, #E661006-0200) at 20 μL/well, and read for OD₄₅₀₋₆₅₀ values using a plate reader (Molecular Devices, model: SpectraMax Plus). The values were analyzed with Graphad 8.0 and plotted.

[4] = target: T1, human OX40 on cells (CHO-K1/hu OX40); assay: cell-based or functional assay
[5] = target: T4, cynomolgus monkey OX40 protein …; assay: BLI, antibody on ProA sensor, 1:1 global fit
Description: (§2) The binding kinetics between the antigen and the antibody was analyzed by the Biolayer Interferometry (BLI) technique using an Octet Red 96e molecular interaction analyzer (Fortebio).
(§3) The association and dissociation signals between the OX40 antibodies and OX40 proteins were recorded by Octet Red 96 in real time. When data analysis was performed using Octet Data Analysis software (Fortebio, version 11.0), 0 nM was used as a reference hole, and reference subtraction was performed; the “1:1 Global fitting” method was selected to fit the data, and the kinetics parameters of the binding of antigens to antigen-binding proteins were calculated, with kon(1/Ms) values, kdis(1/s) values and KD(M) values obtained.

[6] = target: T2, human OX40 protein (Acro biosystem, …); assay: BLI, antibody on ProA sensor, 1:1 global fit
Description: as §2, §3

[7] = target: T2, human OX40 protein (Acro biosystem, …); assay: ELISA, coated human OX40 protein
Description: as §1

[8] = target: T1, human OX40 on cells (CHO-K1/hu OX40); assay: FACS, blocking of biotin-human OX40L on CHO-K1/hu OX40 cells
Description: Briefly, the CHO-K1/hu OX40 cells were digested and resuspended in an F-12K complete medium, and the cell density was adjusted to 1×10⁶ cells/mL. The cells were seeded in a 96-well V-bottom plate (Corning, #3894) at 100 μL/well, and centrifuged, and then the supernatant was discarded. The test antigen-binding proteins diluted in a 3-fold gradient at concentrations that were 2 times the final concentrations were added at 100 μL/well, and the mixture was well mixed, wherein the antigen-binding protein had the highest final concentration of 100 nM, and a total of 8 concentrations were obtained. […] The cells were incubated at 4° C. for 1 h away from light. Thereafter, the cells were centrifuged at 4° C. for 5 min, and then the supernatant was discarded. […] The cells in each well were rinsed twice with 100 μL of pre-cooled PBS, and centrifuged at 500 g at 4° C. for 5 min, and then the supernatant was discarded. A 1:200 fluorescent secondary antibody PE Streptavidin (BD Biosciences, #554061) was added at 100 μL/well, and the cells were incubated away from light at 4° C. for 30 min. The cells in each well were rinsed twice with 200 μL of pre-cooled PBS, and centrifuged at 500 g at 4° C. for 5 min, and then the supernatant was discarded. Finally, the cells in each well were resuspended in 200 μL of precooled PBS. Fluorescence signal values were read using BD FACS CANTOII, and IC50 was calculated. Inhibition rate %={average MFI of non-blocking control well−MFI value of OX40 antibody}/{(average MFI of non-blocking control well)−average MFI of 100% blocking control well)}×100%.

[9] = target: T1, human OX40 on cells (CHO-K1/hu OX40); assay: FACS, CHO-K1/hu OX40 cells; remark: listed apart in the source
Description: This example is intended to investigate the in vitro binding activity of anti-human OX40 HCAb monoclonal antibodies to human OX40. The antibody binding assay at the cellular level was performed using a stable CHO-K1 cell strain overexpressing human OX40 (CHO-K1/hu OX40). Briefly, the CHO-K1/hu OX40 cells were digested, resuspended in an F12K complete medium and washed once with PBS. The cell density was adjusted to 1×10⁶ cells/mL with PBS. The cells were seeded in a 96-well V-bottom plate (Corning, #3894) at 100 μL/well, and centrifuged, and then the supernatant was discarded. Then, the test antibodies diluted in a 3-fold gradient at concentrations that were 2 times the final concentrations were added at 100 μL/well. The cells were incubated at 4° C. for 1 h away from light. Thereafter, the cells in each well were rinsed twice with 100 μL of pre-cooled PBS, and centrifuged at 500 g at 4° C. for 5 min, and then the supernatant was discarded. […] The plate was incubated away from light at 4° C. for 30 min. The cells in each well were rinsed twice with 100 μL of pre-cooled PBS, and centrifuged at 500 g at 4° C. for 5 min, and then the supernatant was discarded. Finally, the cells in each well were resuspended in 200 μL of pre-cooled PBS, and the fluorescence signal values were read using a BD FACS CANTOII.

[10] = target: T1, human OX40 on cells (CHO-K1/hu OX40); assay: cell-based or functional assay; remark: listed apart in the source

Binder | EC50 [1] | EC50 [3] | Maximum OD [3] | EC50, HEK293/OX40/NF-kb luciferase reporter [4] | Maximum fluorescence signal value, HEK293/OX40/NF-kb luciferase reporter [4] | Kd [5] | koff [5] | kon [5] | Kd [6] | koff [6] | kon [6] | EC50 [7] | Maximum OD [7] | IC50 [8] | Maximum inhibition rate (%) [8] | EC50 [9] | Maximum MFI [9] | other results
PR004284 (bispecific antibody, human IgG1, kappa, L234A L235A, IgG-VH tetravalent symmetric structure: PR001331 IgG (anti-PSMA) with the VH of PR002067 via linker H1_15-RT; human IgG1 Fc (L234A, L235A); also called PSMAxOX40 bispecific antibody) light: DIQMTQSPSSLSASIGDRVTITCRASQSINSYLNWYQQKPGKAPKLLIYTASSLLSGVPSRFSASGSWTDFSLTISSLQPEDFATYYCQQSFSTPYTFGQGTNLEIKRTVAAPSVFIFPPSDEQLKSGTASVVCLLNNFYPREAKVQWKVDNALQSGNSQESVTEQDSKDSTYSLSSTLTLSKADYEKHKVYACEVTHQGLSSPVTKSFNRGEC heavy: not shown | 6.7 nM | – | – | – | – | – | – | – | – | – | – | – | – | – | – | – | – | EC50 [2]: 4.96 nM; Maximum MFI [2]: 287000 MFI
PR000327 (antibody, V domains shown) VH: QVQLVESGGGLVKPGESLRLSCAASGFTFSDYYMYWVRQAPGKGLEWVAIISDGGYYTYYSDIIKGRFTISRDNAKNSLYLQMNSLKAEDTAVYYCARGFPLLRHGAMDYWGQGTLVTVSS VL: DIQMTQSPSSLSASVGDRVTITCKASQNVDTNVAWYQQKPGQAPKSLIYSASYRYSDVPSRFSGSASGTDFTLTISSVQSEDFATYYCQQYDSYPYTFGGGTKLEIK | 3.02 nM | – | – | – | – | – | – | – | – | – | – | – | – | – | – | – | – | –
PR001331 (antibody, human IgG1, kappa, V domains shown, H2L2 parental antibody against PSMA; also called anti-PSMA H2L2 antibody) VH: QVQLVESGGGVVQPGRSLRLSCSASGFTFINYGMNWVRQAPGKGLEWVAVIWYDGSNKYYADSVRGRFTISRDNSKNTLYLQMNSLRAEDTAVYYCARGPGYGGHSDAFDIWGQGTMVTVSS VL: DIQMTQSPSSLSASIGDRVTITCRASQSINSYLNWYQQKPGKAPKLLIYTASSLLSGVPSRFSASGSWTDFSLTISSLQPEDFATYYCQQSFSTPYTFGQGTNLEIKR | 2.58 nM | – | – | – | – | – | – | – | – | – | – | – | – | – | – | – | – | –
PR002066 (antibody, human IgG1, V domains shown, no light chain; also called anti-OX40 HCAb antibody) VH: EVQLLESGGGLVQPGGSLRLSCIASGFTFSSYAMSWVRQAPGKGLEWVSAISGRGGSTFYADSVRGRFTISRDNSKNTLYLQMNSLRAEDTAVYYCANGMTGTTDVDYWGQGTQVTVSS | – | 0.37 nM | 2.44 OD | 5.45 nM | 147000 luminescence | 22.7 nM | 0.00097 s⁻¹ | 42700 M⁻¹ s⁻¹ | 8.71 nM | 0.000387 s⁻¹ | 44400 M⁻¹ s⁻¹ | 0.118 nM | 2.47 OD | 67.6 nM | 58% | 4.67 nM | 3010 MFI | EC50, IFN-γ release by human T cells with OKT3 and CHO-K1-CD32b cells [10]: 0.031 nM; Maximum IFN-γ release value [10]: 1870
PR002077 (antibody, human IgG1, V domains shown, no light chain; also called anti-OX40 HCAb antibody) VH: EVQLLESGGGLVQPGGSLRLSCAASGFTFSSYAMSWVRQAPGKGLEWVSAISGRGNITFYADSVRGRFTISRDNSKNTLYLQMNSLRAEDTAVYYCANGITGTTDVDYWGQGTLVTVSS | – | 0.441 nM | 2.73 OD | 3.51 nM | 113000 luminescence | 22.1 nM | 0.000722 s⁻¹ | 32700 M⁻¹ s⁻¹ | 10.6 nM | 0.000364 s⁻¹ | 34300 M⁻¹ s⁻¹ | 0.146 nM | 2.67 OD | 41.1 nM | 34% | 7.22 nM | 3980 MFI | –
